These results are taken from US8993518B2, “Compositions and methods for treating antiphospholipid syndrome” (Beth Israel Deaconess Medical Center, Inc., priority 2010, dated 2015).

For experiment [1], the target named is T1, domain V of β2GPI (β2GPI-DV) (Homo sapiens, UniProt P02749).
T1 construct: Domain V of β2GPI (residues 244-326), was subcloned into a pET15b vector (Novagen); histidine tag followed by TEV protease site (N, cleaved yes); made in house
T1 sequence (P02749 263-345): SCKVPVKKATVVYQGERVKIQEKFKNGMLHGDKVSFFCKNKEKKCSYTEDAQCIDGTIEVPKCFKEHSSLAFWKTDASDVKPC
Description: Inhibition of binding of isolated domain V of β2GPI to cardiolipin in the absence of antibodies. Particulars: in the absence of dimerization antibodies, read-out: concentration at half-maximal inhibition of binding of domain V to cardiolipin. The protocol:
(§1) Cardiolipin-coated 96 well plates available as part of the ImmunoWELL cardiolipin IgG test kit (GenBio) were blocked with 0.5% of skim milk and 2% BSA in 20 mM Tris, 100 mM NaCl, 2 mM CaCl2, pH 7.4. The assay buffer contained 20 mM Tris, 100 mM NaCl, 2 mM CaCl2, pH 7.4 with 2% BSA and the wash buffer was 20 mM Tris, 100 mM NaCl, 2 mM CaCl2, pH 7.4. When the purified β2GPI (Haematologic Technologies, Inc.) was used in experiments, 27 mM glycine was added to the assay buffer to account for glycine present in the stock solution of β2GPI. β2GPI bound to cardiolipin was detected with peroxidase-conjugated anti-β2GPI antibodies (Cedarlane, CL20021HP, 2 mg/ml) diluted 1:2500. […] The peroxidase activity of the bound antibodies was detected using 2-2′-azino-di-[3-ethylbenzthizzoline]sulfonate (ABTS) chromogenic reagent by measuring OD at 405 nm. […] The fits of the raw data and the titration data points were then normalized to the maximum binding determined from the fit to facilitate comparison.
(§2) For the inhibition studies, increasing concentrations of A1 or A1-A1 were added to a constant amount of β2GPI (50 nM), normal human serum (1%) or β2GPI-DV (130 nM) and incubated for 1 hour at room temperature. […] Then, samples were incubated on wells for an additional 1 hour and, after washing, the bound β2GPI/anti-β2GPI or β2GPI-DV/anti-tag antibody complexes were detected.

Experiment [2] addresses T2, β2GPI/anti-β2GPI antibody complexes (β2GPI in normal human serum) (Homo sapiens, UniProt P02749).
T2 construct: pooled normal human serum (Innovative Research); tissue Innovative Research; host or cells: pooled normal human serum
T2 sequence (P02749 20-345): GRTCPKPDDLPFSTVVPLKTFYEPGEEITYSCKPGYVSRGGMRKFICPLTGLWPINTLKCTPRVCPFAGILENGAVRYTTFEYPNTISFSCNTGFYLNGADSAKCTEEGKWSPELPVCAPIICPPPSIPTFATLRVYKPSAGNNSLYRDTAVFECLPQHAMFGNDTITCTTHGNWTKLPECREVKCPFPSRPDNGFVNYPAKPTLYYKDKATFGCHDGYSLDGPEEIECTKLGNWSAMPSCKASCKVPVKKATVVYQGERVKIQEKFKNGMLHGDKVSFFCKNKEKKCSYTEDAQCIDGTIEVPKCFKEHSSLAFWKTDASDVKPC
Description: Inhibition of binding of β2GPI in human serum to cardiolipin in the presence of anti-β2GPI antibodies. Conditions: 0.04% human serum, read-out: half-maximal inhibition of binding of β2GPI in serum to cardiolipin. As for the experimental part: (§3) Cardiolipin-coated 96 well plates available as part of the ImmunoWELL cardiolipin IgG test kit (GenBio) were blocked with 0.5% of skim milk and 2% BSA in 20 mM Tris, 100 mM NaCl, 2 mM CaCl2, pH 7.4. The assay buffer contained 20 mM Tris, 100 mM NaCl, 2 mM CaCl2, pH 7.4 with 2% BSA and the wash buffer was 20 mM Tris, 100 mM NaCl, 2 mM CaCl2, pH 7.4. When the purified β2GPI (Haematologic Technologies, Inc.) was used in experiments, 27 mM glycine was added to the assay buffer to account for glycine present in the stock solution of β2GPI. β2GPI bound to cardiolipin was detected with peroxidase-conjugated anti-β2GPI antibodies (Cedarlane, CL20021HP, 2 mg/ml) diluted 1:2500. To detect β2GPI-DV bound to cardiolipin, we used peroxidase-conjugated anti-HA antibody (Abcam, ab1265, 1 mg/ml) directed to HA epitope tag at the N-terminus of β2GPI-DV diluted 1:2500. The peroxidase activity of the bound antibodies was detected using 2-2′-azino-di-[3-ethylbenzthizzoline]sulfonate (ABTS) chromogenic reagent by measuring OD at 405 nm. […] The fits of the raw data and the titration data points were then normalized to the maximum binding determined from the fit to facilitate comparison.
(§4) […] Then, samples were incubated on wells for an additional 1 hour and, after washing, the bound β2GPI/anti-β2GPI or β2GPI-DV/anti-tag antibody complexes were detected.

Experiment [3] has as its target T3, β2GPI purified from human plasma (Homo sapiens, UniProt P02749).
T3 construct: We used β2GPI purified from human plasma available from Haematologic Technologies, Inc; purchased Haematologic Technologies, Inc; host or cells: human plasma
T3 sequence (P02749 20-345): T2 sequence (P02749 20-345)
Description: Inhibition of binding of purified β2GPI to cardiolipin in the absence of anti-β2GPI antibodies. Particulars: in the absence of anti-β2GPI antibodies (FIG. 5). The protocol: as §1, §2

Experiment [4] has as its target T4, β2GPI in normal human serum (Homo sapiens, UniProt P02749).
T4 construct: pooled normal human serum (Innovative Research); tissue Innovative Research; host or cells: pooled normal human serum
T4 sequence (P02749 20-345): T2 sequence (P02749 20-345)
The experiment in a line: Inhibition of binding of β2GPI in human serum to cardiolipin in the absence of anti-β2GPI antibodies. Conditions: 1% human serum, read-out: concentration of inhibitor at 50% inhibition of β2GPI in serum binding to cardiolipin. As for the experimental part: as §1, §2

In experiment [5] the target is T5, dimeric β2GPI-DV/anti-tag antibody complexes (Homo sapiens, UniProt P02749).
T5 construct: Domain V of β2GPI (residues 244-326), was subcloned into a pET15b vector (Novagen); histidine tag followed by TEV protease site (N, cleaved yes); made in house
T5 sequence (P02749 263-345): T1 sequence (P02749 263-345)
The experiment in a line: Inhibition of binding of β2GPI-DV to cardiolipin in the presence of dimerization (anti-tag) antibodies. Conditions: 30 nM β2GPI-DV, read-out: half-maximal inhibition of binding of β2GPI-DV to cardiolipin. The protocol:
as §3, §4

Experiment [6] concerns the target T6, domain V of β2GPI (Homo sapiens, UniProt P02749).
T6 sequence (P02749 263-345 limits assumed): T1 sequence (P02749 263-345)
Particulars: Lee et al., Structure 18:366-376, 2010; read-out: affinity of A1 for domain V of β2GPI; cited from earlier work.

The target in experiment [7] is T7, β2GPI/anti-β2GPI antibody complexes (β2GPI purified from human plasma) (Homo sapiens, UniProt P02749).
T7 construct: We used β2GPI purified from human plasma available from Haematologic Technologies, Inc; purchased Haematologic Technologies, Inc; host or cells: human plasma
T7 sequence (P02749 20-345): T2 sequence (P02749 20-345)
The experiment in a line: Inhibition of binding of purified β2GPI to cardiolipin in the presence of anti-β2GPI antibodies. Particulars: 10 nM purified β2GPI, one-site inhibition fit, read-out: half-maximal inhibition of binding of purified β2GPI to cardiolipin. The protocol:
as §3, §4

Experiment [8] in a line: Binding of β2GPI in normal human serum to cardiolipin-coated surface. The protocol: as §1
(§5) For the binding studies, 50 μl of increasing concentrations of either β2GPI (Haematologic Technologies, Inc.), pooled normal human serum (Innovative Research), or the purified recombinant β2GPI-DV were applied to wells and incubated for 1 hour at room temperature. […] Then, the samples were applied to cardiolipin, incubated for 1 hour, washed, and bound β2GPI or β2GPI-DV was detected.

Experiment [9] is described as follows: Binding of purified β2GPI to cardiolipin-coated surface. Conditions: read-out: half-maximal binding of purified β2GPI to cardiolipin. Also noted: species or system human. As for the experimental part: as §1, §5
Experiment [10] in a line: Binding of β2GPI-DV to cardiolipin-coated surface. Particulars: read-out: binding of β2GPI-DV to cardiolipin, one-site model fit. The protocol: as §1, §5
The mark [11] stands for this setting: in the absence of anti-β2GPI antibodies.
Setting [12] is: in the presence of anti-β2GPI antibodies.

Take “A1: Monomeric first LA module, fragment of mouse ApoER2 (residues 12-47 of the mature protein)”: the IC50 was determined as 188 ± 44 µM in [1]; 218 ± 21 µM in experiment [2]; 176 ± 37 µM in experiment [4]; 204 ± 33 µM in experiment [5]; 191 ± 34 µM in [7]. The “inhibition of binding of purified β2GPI to cardiolipin” value in experiment [3] is listed as “only weakly inhibited”. Besides, the Kd in experiment [6] is 1000 µM.

B1: β2GPI: Beta2-glycoprotein I, in pooled normal human serum or purified from human plasma (Haematologic Technologies, Inc.) (protein)
chain: T2 sequence (P02749 20-345)
With B1, the figures for the “half-maximal binding of β2GPI in serum to cardiolipin” value in experiment [8] (setting [11]) and in experiment [8] (setting [12]) were 0.40±0.05 % of serum and 0.028±0.004 % of serum, respectively. For the same molecule, the EC50 stood at 0.043 ± 0.004 µM in [9] (setting [11]) and 0.0024 ± 0.0004 µM in [9] (setting [12]).

B2: β2GPI-DV: Recombinant isolated domain V of β2GPI (residues 244-326), with an N-terminal HA tag in the binding assays (protein)
chain: YPYDVPDYASCKVPVKKATVVYQGERVKIQEKFKNGMLHGDKVSFFCKNKEKKCSYTEDAQCIDGTIEVPKCFKEHSSLAFWKTDASDVKPC
Consider B2, for which the EC50 in experiment [10] (in the absence of anti-tag antibodies) was 0.112 ± 0.021 µM; in [10] (in the presence of anti-tag antibodies) it was 0.019 ± 0.001 µM.

B3: A1-A1: Dimeric inhibitor: two A1 (LA) modules from ApoER2 connected by a flexible Gly-Ser-Ser-Gly linker, SEQ ID NO: 1 (protein)
chain: AECEEDQFRCRNERCIPLVWRCDEDNDCSDNSDEDDCGSSGCEEDQFRCRNERCIPLVWRCDEDNDCSDNSDEDDCEA
For B3, in experiment [3], the “inhibition of binding of purified β2GPI to cardiolipin” value is “only weakly inhibited”.
